Key:
[1] = test system: Normal human epidermal keratinocytes (KC); assay: Cell spreading by F-actin staining, keratinocytes; assay type: cell-based; settings: 3 h adhesion
Experimental: Cells were harvested at passage 3-8, seeded at 3500/cm^2 and allowed to adhere onto films for 20 min, 1 or 3 hours in chamber slides. After gentle washing, cells were fixed with 4% paraformaldehyde, permeabilized with 0.1% Triton X-100 in PBS, and blocked with 1% bovine serum albumin (BSA, AppliChem) in PBS. Secondary antibody was AlexaFlour488 goat anti mouse IgG (H+L), cross adsorbed (Invitrogen), used at 1:500. Phalloidin-AlexaFluor594 (Life Technologies) were used at 1:40 to detect filamentous actin. DAPI was used for nuclear staining. Slides were mounted in Fluorescence mounting medium (Dako, Copenhagen). The stained cells were analyzed using an inverted microscope (Nikon Eclipse Ti) at 4× and 10× magnification. Excitation at 563/45 nm and detection at 625/50 nm was used for red fluorescence, whereas excitation with 387/11 nm and detection at 447/60 nm was used to monitor blue fluorescence. By staining for F-actin, cell spreading and formation of stress fibers in KC after 3 h adhesion were investigated (FIG. 6).

[2] = Fabrication of cell culture matrices (fiber, film, foam, free-standing film); assay type: physicochemical
Experimental: Briefly, petri dishes were coated at room temperature with recombinant spider silk solution at a concentration of 0.3 mg/ml to generate films. Foams were made by rapid pipetting of the silk solution, and fibers were formed by gentle wagging in 15 ml tube followed by cutting into smaller pieces.
Free-standing films were prepared by applying of a droplet of protein solution (3 mg/ml) onto a ˜3 mm wide frame of metal wire hanging hooked up in a well of a 96-well plate and allowed to dry over night at 25° C. and 30% rh under sterile conditions.
It was observed that a spider silk protein functionalized with a disulfide-looped RGD motif self-assembles into stable matrices. As shown by the micrographs in FIG. 2a, the FNCC-4RepCT (SEQ ID NO: 13) protein could be presented as matrices in the format of fiber (upper), film (middle) and free standing film (lower). Scale bars in FIG. 2a indicate 500 μm (upper & middle) and 1000 μm (lower). […] The smooth film formats (casted and free-standing) were used in the subsequent cell adhesion experiments to rule out the effects of matrix morphology.

[3] = test system: primary keratinocytes (NHEK); assay: Cell viability analysis with Alamar Blue; assay type: cell-based, human; settings: seeding 3 500 cells/cm^2, day 3 and day 6
Experimental: For microscopic studies, the proteins were casted as films in chamber glass slides (LabTekII). For Alamar blue experiments, where whole well coverage is desired, the cell culture wells were coated with a covering protein solution of 0.3 mg/ml for 2 h before the liquid was removed. Films and coated surfaces were allowed to dry over night at 25° C. and 30% rh under sterile conditions, then washed twice with sterile 20 mM phosphate buffer, pH 7.4, and pre-incubated with complete cell culture medium for 1 h at 37° C. with 5% CO2 before cell seeding.
Cell growth of primary keratinocytes (NHEK) after initial low seeding density 3 500 cells/cm^2 on wells coated with films of WT-silk (SEQ ID NO: 2) or FNCC-silk (SEQ ID NO: 13) in 96-well plates was monitored with Alamar Blue cell viability assay (Molecular Probes) every third day during the culture period. After 4 h incubation with Alamar blue (diluted 1:10 in cell culture medium), fluorescence intensity of 90 μL supernatants from the cultures was measured with a fluorescence plate reader (CLARIOstar, BMG Labtech) using excitation at 544 nm and emission at 595 nm. Two independent experiments were performed where films were analysed in hexaplicates. Fluorescence intensities, correlating the number of living cells in each well, were plotted over time to yield growth profiles of cells seeded on silk with different cell binding motifs.

[4] = test system: Human mesenchymal stem cells (hMSC); assay: Early attachment assay, mesenchymal stem cells on silk films; assay type: cell-based; settings: MSC, 1 h adhesion to film
Experimental: Human mesenchymal stem cells (hMSC, Gibco) from bone marrow were grown in culture flasks coated with CELLstart (Gibco) in complete StemPro MSC serum free medium CTS (Gibco) containing […] fibroblast growth factor […] (Gibco) and 2 mM Glutamax (Gibco).
Cells were harvested at passage 3-8, seeded at 20 000/cm^2 and allowed to adhere to the films or controls for 1 h in a cell incubator before gentle washing twice with pre-warmed phosphate buffered saline (PBS) followed by 10 min fixation with 96% ethanol. After three washings in water, cells were stained for 30 min with 0.1% Crystal Violet in H2O. Plates were dried after extensive washing in water.
Attachment and morphology of cells bound to the films obtained in Example 3 were documented by taking micrographs at 2× and 10× magnification in an inverted bright field microscope. The color was then dissolved in 40 μL 20% acetic acid for 10 min, and 35 μL of the solution was transferred to a 384-well plate for optical density measurement at 595 nm (TECAN Infinite M200). Wells with cells fixed without pre-washing was used as positive control. Wells with no cells were used as blank. Experiments were run in hexaplicates and repeated three times. […]

B1: FNCC-silk: recombinant spider silk protein 4RepCT with N-terminal cysteine-looped RGD motif CTGRGDSPAC (SEQ ID NO: 10) (protein)
chain: GPNSCTGRGDSPACGSASGQGGYGGLGQGGYGQGAGSSAAAAAAAAAAAAGGQGGQGQGGYGQGSGGSAAAAAAAAAAAAAAAGRGQGGYGQGSGGNAAAAAAAAAAAAAAAGQGGQGGYGRQSQGAGSAAAAAAAAAAAAAAGSGQGGYGGQGQGGYGQSSASASAAASAASTVANSVSRLSSPSAVSRVSSAVSSLVSNGQVNMAALPNIISNISSSVSASAPGASGCEVIVQALLEVITALVQIVSSSSVGYINPSAVNQITNVVANAMAQVMG
modifications: cyclic disulfide loop; Fusion protein; DISULFID (5)..(14)
**Q.** With B1 as the molecule, how does the “cell morphology (F-actin)” value [1] read?
**A.** most cells had a nice spread-out morphology with distinct actin filaments

**Q.** What about the “spreading of KC (total cell area in 4× micrographs)” value ([1]; seeding 3 500/cm^2) of the same molecule?
**A.** significantly increased compared to FNSS-silk

**Q.** And the “spreading of KC (total cell area in 4× micrographs)” value ([1]; seeding 3 500/cm^2, listed as FNCC)?
**A.** significantly increased spreading of KC compared to RGD-film (p<0.05) and WT-film (p<0.001)

**Q.** What about the “formation of free-standing films” value [2] of the same molecule?
**A.** possible to form free-standing films

**Q.** And the “stability and integrity of fibers, film and foam” value [2]?
**A.** higher stability and integrity than noted for linear RGD silk proteins (RGD-4RepCT, SEQ ID NO: 16) and WT silk proteins

**Q.** And the “level of viable cells (Alamar Blue fluorescence)” value [3]?
**A.** increased level of viable cells on FNCC-silk compared to WT-silk

**Q.** What about the “attachment seen in micrographs” value ([4]; crystal violet staining) of the same molecule?
**A.** clear improvement of attachment is seen on the FNCC films compared to both RGD and WT

**Q.** What about the “OD of crystal violet dissolved from adhered cells (number of bound cells)” value ([4]; seeding 20 000/cm2, serum-free) of the same molecule?
**A.** significantly more cells had bound to the FNCC-silk after 1 h compared to WT silk
